Measurements: publication doi:10.1101/2024.10.02.616342

Target: mNG-BCR-ABL (biotinylated Avitag-linker-mNeon Green-linker-p210 BCR-ABL, full length) (human) (UniProt P00519)
Assay: single-molecule TIRF pull-down

“mNG-BCR-ABL (biotinylated Avitag-linker-mNeon Green-linker-p210 BCR-ABL, full length) (from UniProt P00519-1 28-1130)” gave a percent dimeric of 55%, a percent monomeric of 40% and a percent tetramer of 5%. For the same substance, the stoichiometry N was 2.
